{"source": "patent US20200230166A1", "about": "“Oligonucleotides in food, beverage, cosmetic and medicinal formulations” (DNA Essence GmbH, priority 2015, published 2020)", "assay_type": "in vitro ADME", "protocol": "In order to simulate the effect of digestion and oligonucleotide uptake without human trials and without harming endangered species, in vitro gastro-intestinal digestion experiments were performed. […] In short, oral, gastric and intestinal passage were simulated by emulating their respective chemical and enzymatic compositions.\nThe integrity of the oligonucleotides after in vitro digestion was determined through realtime PCR. Quantification of full length genes was performed using the Applied\nBiosystems 7500 (Thermo Fisher Scientific Inc.) with the gScript™ One-Step SYBR® Green qRT-PCR Kit, ROX™ (QuantaBio Inc.) and oligonucleotide primers (Prim_SEQ1 for [ATGCCCTTGTCCAGTC], Prim_SEQ1 rev[CTAGAAAGCACAGCTG]) annealing (53° C.) at the ends of the full length gene. […] In order to simulate the in vitro passage of a traditional extract, a piece of dried beef meat (“beef jerky”, Bos taurus) was used and oligonucleotides for the corresponding growth factor 1 (GenBank: V00111.1) derived (for [acggctcagg gtccgtgaca], rev [ctaataaaat gaggaaattg]). Dried beef samples were rinsed in deionized, sterile water for 14 hours at 21° C. followed by an incubation with proteinase K (400 ng/mL, P2308 Sigma-Aldrich, USA) and guanidine hydrochloride (5 mol/L, CAS Number: 50-01-1) in 1 mL volume for 12 h at 55° C. […]", "data": [{"molecule": "SEQ ID NO: 1: growth hormone 1 (GH1) of Panthera tigris altaica (tiger) (nucleic acid, Panthera tigris altaica) DNA: ATGCCCTTGTCCAGTCTGTTTGCCAACGCCGTGCTCCGGGCCCAGCACCTGCACCAGCTGGCCGCCGACACCTACAAAGAGTTTGAGCGGGCGTACATCCCGGAGGGACAGAGGTATTCCATCCAGAACGCGCAGGCTGCCTTCTGCTTCTCGGAGACCATCCCGGCCCCCACGGGCAAGGACGAGGCCCAGCAGAGATCCGTGAGTGGCCAGGGGCGCCCGGCCAAGGATCAGGGGCCTCCCTCGTCTGCAGGAGTCAGGCCCTGGGCAGCCTTCTCCCTGGGGCCGAGGGTGTGCAGGGAGGCAGACTGGGCCTCTCCGTCCCTCTTCCCCTTTTTGCAGGAGCTGGAAGATGGCAGCCCCCGGGCCGGGCAGATCCTGAAGCAAACCTACGACAAGTTTGACACAAACTTGCGCAGTGACGACGCGCTGCTCAAGAACTATGGGCTCCTGTCCTGCTTCAAGAAGGACCTGCACAAGGCTGAGACGTACCTGCGGGTCATGAAGTGTCGCCGCTTCGTGGAAAGCAGCTGTGCTTTCTAG", "values": [{"measurement": "detection of full length gene oligonucleotide by realtime PCR", "result": "easily detectable amounts"}, {"measurement": "crossing point (CP) of full length oligonucleotide in realtime PCR", "setting": "after passing through the in vitro digestion assay, 1 million oligonucleotide molecules or more, of 40 cycles", "result": 23, "unit": "cycles"}]}]}
